Legend:
[1] = biological target: human insulin promoter factor 1 (IPF-1), His and Xpress-tagged at the N-terminus
[2] = biological target: T1, human hepatocyte nuclear factor 4α (HNF-4α), His and Xpress-tagged at the N-terminus
T1 chain: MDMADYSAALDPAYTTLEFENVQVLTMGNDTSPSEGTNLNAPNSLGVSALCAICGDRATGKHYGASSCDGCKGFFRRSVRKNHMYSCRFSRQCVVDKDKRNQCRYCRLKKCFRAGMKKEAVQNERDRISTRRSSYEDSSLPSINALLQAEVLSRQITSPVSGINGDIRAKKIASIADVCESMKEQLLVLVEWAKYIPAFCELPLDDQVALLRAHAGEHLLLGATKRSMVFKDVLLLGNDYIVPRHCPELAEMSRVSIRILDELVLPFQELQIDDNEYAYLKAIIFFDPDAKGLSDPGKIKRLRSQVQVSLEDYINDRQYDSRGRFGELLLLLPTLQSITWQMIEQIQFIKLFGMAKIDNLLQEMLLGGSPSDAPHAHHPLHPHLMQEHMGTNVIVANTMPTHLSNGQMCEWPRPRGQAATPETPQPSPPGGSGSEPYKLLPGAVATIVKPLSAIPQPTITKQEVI

[3] = biological target: T2, human hepatocyte nuclear factor 1α (HNF-1α), His and Xpress-tagged at the N-terminus (not fully specified)
T2 chain: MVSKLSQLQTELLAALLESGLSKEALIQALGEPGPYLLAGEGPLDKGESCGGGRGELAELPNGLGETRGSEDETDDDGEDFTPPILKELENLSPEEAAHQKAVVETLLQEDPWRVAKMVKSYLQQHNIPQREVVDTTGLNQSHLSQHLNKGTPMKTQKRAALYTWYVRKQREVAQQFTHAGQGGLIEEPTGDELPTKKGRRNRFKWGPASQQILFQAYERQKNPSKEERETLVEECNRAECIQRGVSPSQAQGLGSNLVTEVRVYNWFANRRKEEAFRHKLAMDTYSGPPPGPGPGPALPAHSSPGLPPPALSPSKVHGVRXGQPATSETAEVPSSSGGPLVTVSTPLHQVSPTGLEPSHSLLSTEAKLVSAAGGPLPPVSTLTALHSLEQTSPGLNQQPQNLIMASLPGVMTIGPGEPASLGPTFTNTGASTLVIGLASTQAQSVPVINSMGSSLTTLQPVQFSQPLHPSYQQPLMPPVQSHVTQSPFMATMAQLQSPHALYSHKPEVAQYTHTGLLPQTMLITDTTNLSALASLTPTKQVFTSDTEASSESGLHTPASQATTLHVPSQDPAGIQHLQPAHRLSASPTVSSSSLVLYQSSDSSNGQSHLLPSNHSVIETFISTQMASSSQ

Chain of human insulin promoter factor 1 (IPF-1), His and Xpress-tagged at the N-terminus (chain, as listed by the source): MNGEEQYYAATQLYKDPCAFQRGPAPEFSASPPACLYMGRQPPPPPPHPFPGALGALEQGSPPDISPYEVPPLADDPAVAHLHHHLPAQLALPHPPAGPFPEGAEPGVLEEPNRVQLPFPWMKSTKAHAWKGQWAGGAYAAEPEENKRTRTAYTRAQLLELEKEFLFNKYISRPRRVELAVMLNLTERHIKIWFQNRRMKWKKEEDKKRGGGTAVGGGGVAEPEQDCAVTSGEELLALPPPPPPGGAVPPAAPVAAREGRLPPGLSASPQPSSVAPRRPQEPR

B1: human µ-calpain extracted from human erythrocytes (Calpain 1, human erythrocytes; Calbiochem, Inc.) (protein)
chain: SEEIITPVYCTGVSAQVQKQRARELGLGRHENAIKYLGQDYEQLRVRCLQSGTLFRDEAFPPVPQSLGYKDLGPNSSKTYGIKWKRPTELLSNPQFIVDGATRTDICQGALGDCWLLAAIASLTLNDTLLHRVVPHGQSFQNGYAGIFHFQLWQFGEWVDVVVDDLLPIKDGKLVFVHSAEGNEFWSALLEKAYAKVNGSYEALSGGSTSEGFEDFTGGVTEWYELRKAPSDLYQIILKALERGSLLGCSIDISSVLDMEAITFKKLVKGHAYSVTGAKQVNYRGQVVSLIRMRNPWGEVEWTGAWSDSSSEWNNVDPYERDQLRVKMEDGEFWMSFRDFMREFTRLEICNLTPDALKSRTIRKWNTTLYEGTWRRGSTAGGCRNYPATFWVNPQFKIRLDETDDPDDYGDRESGCSFVLALMQKHRRRERRFGRDMETIGFAVYEVPPELVGQPAVHLKRDFFLANASRARSEQFINLREVSTRFRLPPGEYVVVPSTFEPNKEGDFVLRFFSEKSAGTVELDDQIQANLPDEQVLSEEEIDENFKALFRQLAGEDMEISVKELRTILNRIISKHKDLRTKGFSLESCRSMVNLMDRDGNGKLGLVEFNILWNRIRNYLSIFRKFDLDKSGSMSAYEMRMAIESAGFKLNKKLYELIITRYSEPDLAVDFDNFVCCLVRLETMFRFFKTLDTDLDGVVTFDLFKWLQLTMFA
in vitro protein degradation test, Western blotting with anti-Xpress and anti-IPF-1 antibody [1]: the in vitro degradation of IPF-1 by each of human µ-calpain, rabbit m-calpain and rat m-calpain was observed | in vitro protein degradation test, Western blotting with anti-HNF-4α antibody [2]: the degradation of HNF-4α by human µ-calpain was observed | in vitro protein degradation test, Western blotting with anti-Omni/M21 and anti-HNF-1α antibody [3]: the in vitro degradation of HNF-1α by each of human µ-calpain, rabbit m-calpain and rat m-calpain was observed

B2: rat m-calpain (Calpain 2, rat recombinant, E. coli, Calbiochem, Inc.) (protein)
chain: MAGIAMKLAKDREAAEGLGSHERAIKYLNQDYETLRNECLEAGALFQDPSFPALPSSLGFKELGPYSSKTRGIEWKRPTEICADPQFIIGGATRTDICQGALGDCWLLAAIASLTLNEEILARVVPLDQSFQENYAGIFHFQFWQYGEWVEVVVDDRLPTKDGELLFVHSAEGSEFWSALLEKAYAKINGCYEALSGGATTEGFEDFTGGIAEWYELRKPPPNLFKIIQKALEKGSLLGCSIDITSAADSEAVTYQKLVKGHAYSVTGAEEVESSGSLQKLIRIRNPWGQVEWTGKWNDNCPSWNTVDPEVRANLTERQEDGEFWMSFSDFLRHYSRLEICNLTPDTLTCDSYKKWKLTKMDGNWRRGSTAGGCRNYPNTFWMNPQYLIKLEEEDEDDEDGERGCTFLVGLIQKHRRRQRKMGEDMHTIGFGIYEVPEELTGQTNIHLSKNFFLTTRARERSDTFINLREVLNRFKLPPGEYVLVPSTFEPHKNGDFCIRVFSEKKADYQTVDDEIEANIEEIEANEEDIGDGFRRLFAQLAGEDAEISAFELQTILRRVLAKREDIKSDGFSIETCKIMVDMLDEDGSGKLGLKEFYILWTKIQKYQKIYREIDVDRSGTMNSYEMRKALEEAGFKLPCQLHQVIVARFADDELIIDFDNFVRCLVRLEILFKIFKQLDPENTGTIQLDLISWLSFSVL
in vitro protein degradation test, Western blotting with anti-Xpress and anti-IPF-1 antibody [1]: the in vitro degradation of IPF-1 by each of human µ-calpain, rabbit m-calpain and rat m-calpain was observed | in vitro protein degradation test, Western blotting with anti-Omni/M21 and anti-HNF-1α antibody [3]: the in vitro degradation of HNF-1α by each of human µ-calpain, rabbit m-calpain and rat m-calpain was observed
